Data: publication PMC12714728 (2025)
Positions of bridges follow the written chain, without caps; N, C: chain ends. Non-standard residues stand in square brackets, D forms with d. No end group written: not given here.

B1: cyclic peptide CP14 (peptide)
chain: LYEDPLGVAGGMG
modifications: non-template-based cyclic peptide (direct head-to-tail cyclization)
B2: cyclic peptide CP1 (peptide)
chain: [dP]PVSLYEDPLGVAGGMGVY
modifications: also: cyclic peptide, ring closure not given here
B3: cyclic peptide CP4 (peptide)
chain: PGVSLYEDPLGVAGGMGVY
modifications: also: cyclic peptide, ring closure not given here
B4: cyclic peptide CP3 (peptide)
chain: PPLYEDPLGVAGGMG
modifications: also: one Pro of the Pro-Pro template is D, which not given here, cyclic peptide, ring closure not given here
B5: cyclic peptide CP8 (peptide)
chain: CLYRDPLGVAGGMGC
modifications: disulfide 1-15
B6: cyclic peptide CP6 (peptide)
chain: PGLYEDPLGVAGGMG
modifications: also: cyclic peptide, ring closure not given here
B7: cyclic peptide CP13 (peptide)
peptide: CYRDPLGVAGEMC
modifications: also: cyclic peptide, ring closure not given here
B8: cyclic peptide CP2 (peptide)
chain: P[dP]SLYEDPLGVAGGMGV
modifications: also: cyclic peptide, ring closure not given here

Each binder was assayed against T1, H5N1 A/Vietnam/1203/2004 hemagglutinin ectodomain, biotinylated HA0 (influenza A virus A/Vietnam/1203/2004 …) (assay: SPR).

Binder | Kd
B1 | 2740 nM
B2 | 1800 nM
B3 | 290 nM
B4 | 2040 nM
B5 | 320 nM
B6 | 3020 nM
B7 | 8910 nM

These binders were tested against T2, H1N1 A/California/07/2009 hemagglutinin ectodomain, biotinylated HA0 (influenza A virus A/California/07/2009 …, biotin on the BirA site) (assay: SPR).

Binder | Kd
B1 | 1070 nM
B3 | 120 nM
B4 | 2390 nM
B5 | 330 nM
B6 | 1910 nM
B7 | 12000 nM
B8 | 7280 nM

These binders were tested against T3, H1N1 A/New Caledonia/20/1999 hemagglutinin ectodomain, biotinylated HA0 (influenza A virus A/New …, biotin on the BirA site) (assay: SPR).

Binder | Kd
B1 | 640 nM
B2 | 20 nM
B3 | 360 nM
B4 | 1180 nM
B5 | 850 nM
B6 | 800 nM
B7 | 32000 nM
B8 | 3080 nM

Biological target: T1, H5N1 A/Vietnam/1203/2004 hemagglutinin …
Experiment: SPR
Remark: another data set of the same source

Binder | koff
B2 | 0.14 s⁻¹
B3 | 0.32 s⁻¹
B4 | 0.76 s⁻¹
B5 | 0.98 s⁻¹
B6 | 0.95 s⁻¹

Biological target: T2, H1N1 A/California/07/2009 hemagglutinin …
Experiment: SPR
Remark: another data set of the same source

Binder | koff
B2 | 0.01 s⁻¹
B3 | 0.04 s⁻¹
B4 | 1.07 s⁻¹
B5 | 0.1 s⁻¹
B6 | 0.83 s⁻¹
B8 | 3.48 s⁻¹

Biological target: T3, H1N1 A/New Caledonia/20/1999 …
Experiment: SPR
Remark: another data set of the same source

Binder | koff
B2 | 0.02 s⁻¹
B3 | 0.06 s⁻¹
B4 | 0.45 s⁻¹
B5 | 0.23 s⁻¹
B6 | 0.42 s⁻¹
B8 | 1.08 s⁻¹
